Paper PMC5449658

Assays:
[1] = target: TacAT^WT complex (one H6-TacT with one TacA) (Salmonella enterica subsp. enterica serovar Typhimurium LT2) (UniProt Q8ZL98); assay: SEC; Superose 12 10/300 GL; 50 mM HEPES pH 7.0 at 4°C, 150 mM NaCl, 20% glycerol; co-purified TacAT complexes applied; molecular weight from a standard curve of gel filtration standards
[2] = target: H6-TacT^WT toxin (Gcn5-related N-acetyltransferase TacT) (Salmonella enterica subsp. enterica serovar Typhimurium LT2) (UniProt Q8ZL98); assay: SEC

Sequence of UniProt Q8ZL98 (Q8ZL98 whole entry): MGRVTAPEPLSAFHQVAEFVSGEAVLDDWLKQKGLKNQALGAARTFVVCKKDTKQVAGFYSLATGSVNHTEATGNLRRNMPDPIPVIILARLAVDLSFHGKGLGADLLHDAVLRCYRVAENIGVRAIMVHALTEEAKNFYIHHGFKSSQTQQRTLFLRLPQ

Substance “TacAT^WT complex (one H6-TacT with one TacA) (from UniProt Q8ZL98 1-161)” has a stoichiometry N [1] of 2.

“TacA^WT antitoxin (tagless native TacA) (natural protein)” gave a stoichiometry N [2] of 1.
